Substrate: CC(=O)Oc1cccc2ccccc12
Assay: purified protein
Format: biochemical, Aspergillus oryzae
Details: 50 mM sodium phosphate pH 8.0, 30 °C (general assay conditions)

B1: AoAxeB (Aspergillus oryzae RIB40) (protein)
chain: AGSAGCGQPLPPSQNPGGSSYGVNFTLSAGTQRFYRIHIPSNYNVNTPTPLIFSFHGRGKTAESQEKLSQFSNEDWNPDAIAVYPQGLNKEWQGDPHSKDVDDIAFTMEMLDYFQEKFCIDSTRVYAAGKSNGGGFTNLLACDPTASTRIAAFAPVSGAYYQDVSEEACHPTTVPIKCSPGRPSIPILEFHGTADKTIPYGGGGRRGECLPSIPHFVREWSKRLGYGLHNTTKELYDGNVQEYQYGNGDNRGIVTHYRIGGLGHDWPSVRPNSDNPNGTYLDATPIIVKFFKQWVLPGSSEDNQSEAR
Km: 240 ± 120 µM | kcat: 0.17 ± 0.03 s⁻¹
